{"source": "paper PMC5028891", "about": "(Scientific Reports, 2016)", "parents": {"B1": {"name": "unnamed (parent)", "chain 1": "MASMGLQVMGIALAVLGWLAVMLCCALPMWRVTAFIGSNIVTSQTIWEGLWMNCVVQSTGQMQCKVYDSLLALPQDLQAARALVIISIIVAALGVLLSVVGGKCTNCLEDESAKAKTMIVAGVVFLLAGLMVIVPVSWTAHNIIQDFYNPLVASGQKREMGASLYVGWAASGLLLLGGGLLCCNCPPRTDKPYSAKYSAARSAAASNYV", "chain 2": "RCVLTVPSTDIEKEILDLAAATERLNLTDALNSNPAGNLYDWRSSNSYPWTQKLNLHLTITATGQKYRILASKIVDFNIYSNNFNNLVKLEQSLGDGVKDHYVDISLDAGQYVLVMKANSSYSGNYPYSILFQKF"}}, "data": [{"variants_of": "B1", "test": "pull-down", "details": "with partner chain of the complex shown; n = 4; parent: 1; read off a plot", "values": [{"variant": "chain 1 I40D", "ratio to parent": 0.21}, {"variant": "chain 1 I40A", "ratio to parent": 1.1}]}]}
